Data set [1] concerns the target C-terminal domain of the HCoV-NL63 nucleocapsid protein (HCoV-NL63 (isolate Amsterdam 1)) (UniProt Q6Q1R8). Briefly: cross-linking; 50 ug of protein with 0.007% glutaraldehyde, 15 min at room temperature, stopped with Tris, then SDS-PAGE (Coomassie).
For data set [2] the target is unchanged. Briefly: SEC; CTD analysed by size exclusion chromatography; two peaks taken as dimer and monomer from retention time and SDS-PAGE; column and buffer not given. In general terms: SEC sorts molecules by how far they enter the pores of the column.
Data set [3] concerns the molecule itself. The data set is described as follows: native MS; ESI mass spectrometry (MicroTOF-QII, positive ionization mode) of samples dialysed into 50 mM NH4HCO3, pH 7.8; masses of monomer and dimer from deconvolved spectra.

The results in this text go back to paper PMC4336326, “The Nucleocapsid Protein of Human Coronavirus NL63” (PLoS ONE, 2015).

As for “C-terminal domain of the HCoV-NL63 nucleocapsid protein (from UniProt Q6Q1R8 221-340) (domain or fragment)”, the stoichiometry N in data set [1] is over 2. Besides, in data set [2], the percent of the protein present as dimers is 40% and the stoichiometry N worked out at 2.

B1: HCoV-NL63 nucleocapsid (N) protein, complete (natural protein)
chain: MASVNWADDRAARKKFPPPSFYMPLLVSSDKAPYRVIPRNLVPIGKGNKDEQIGYWNVQERWRMRRGQRVDLPPKVHFYYLGTGPHKDLKFRQRSDGVVWVAKEGAKTVNTSLGNRKRNQKPLEPKFSIALPPELSVVEFEDRSNNSSRASSRSSTRNNSRDSSRSTSRQQSRTRSDSNQSSSDLVAAVTLALKNLGFDNQSKSPSSSGTSTPKKPNKPLSQPRADKPSQLKKPRWKRVPTREENVIQCFGPRDFNHNMGDSDLVQNGVDAKGFPQLAELIPNQAALFFDSEVSTDEVGDNVQITYTYKMLVAKDNKNLPKFIEQISAFTKPSSIKEMQSQSSHVAQNTVLNASIPESKPLADDDSAIIEIVNEVLH
notes: also called WT; complete NL63-N protein; source: E. coli BL21, purified (Ni Sepharose, Resource Q, Superdex S75) to about 80% homogeneity
On to B1, for which, in data set [3], the “stoichiometry N” value came out at 2.

The term stoichiometry N denotes a count of units in the complex or per binding partner.
